Experimental data: PMC6237427

How the values were obtained:
germline-reverted VRC01 = test: BLI; Octet Red, 29°C, shaking 500 r.p.m.; germline-reverted VRC01 IgG immobilised on anti-AHC biosensors (40 μg/ml in PBS); Env gp140 trimers in 2-fold dilution series (4 μM to >250 nM) in kinetic buffer (1X PBS pH7.4, 0.1% BSA, 0.02% Tween 20, 0.05% NaN3); 300 s association, 600 s dissociation; 1:1 binding model; relative apparent affinities
[1] = biological target: HIV-1 426c.DM (N460D.N463D) Env on Env-pseudotyped virus produced in 293S GnT1- cells (HIV-1)
[2] = biological target: HIV-1 426c.TM4 (S278R.G471S.N460D.N463D) Env on Env-pseudotyped virus produced in 293T cells (HIV-1)
[3] = biological target: HIV-1 426c.TM1 (N276D.N460D.N463D) Env on Env-pseudotyped virus produced in 293S GnT1- cells (HIV-1)
[4] = biological target: HIV-1 426c.TM4 (S278R.G471S.N460D.N463D) Env on Env-pseudotyped virus produced in 293S GnT1- cells (HIV-1)
[5] = biological target: HIV-1 426c Env on Env-pseudotyped virus produced in 293S GnT1- cells (HIV-1)
[6] = biological target: HIV-1 426c.SM (N276D) Env on Env-pseudotyped virus produced in 293S GnT1- cells (HIV-1)
[7] = biological target: HIV-1 426c.SM (N276D) Env on Env-pseudotyped virus produced in 293T cells (HIV-1)
[8] = biological target: HIV-1 426c.TM1 (N276D.N460D.N463D) Env on Env-pseudotyped virus produced in 293T cells (HIV-1)
[9] = biological target: HIV-1 426c.DM (N460D.N463D) Env on Env-pseudotyped virus produced in 293T cells (HIV-1)
[10] = biological target: HIV-1 426c Env on Env-pseudotyped virus produced in 293T cells (HIV-1)
[11] = biological target: HIV-1 TRO.11 Env on Env-pseudotyped virus produced in 293S GnT1- cells (HIV-1)
[12] = biological target: HIV-1 TRO.11 Env on Env-pseudotyped virus produced in 293T cells (HIV-1)

Substance	Kd (germline-reverted VRC01) [µM]	koff (germline-reverted VRC01) [s⁻¹]	kon (germline-reverted VRC01) [M⁻¹ s⁻¹]	IC50 of neutralization of the Env-pseudotyped virus in TZM-bl cells [1] [mg/L]	IC50 of neutralization of the Env-pseudotyped virus in TZM-bl cells [2] [mg/L]	IC50 of neutralization of the Env-pseudotyped virus in TZM-bl cells [3] [mg/L]	IC50 of neutralization of the Env-pseudotyped virus in TZM-bl cells [4] [mg/L]	IC50 of neutralization of the Env-pseudotyped virus in TZM-bl cells [5] [mg/L]	IC50 of neutralization of the Env-pseudotyped virus in TZM-bl cells [6] [mg/L]	IC50 of neutralization of the Env-pseudotyped virus in TZM-bl cells [7] [mg/L]	IC50 of neutralization of the Env-pseudotyped virus in TZM-bl cells [8] [mg/L]	IC50 of neutralization of the Env-pseudotyped virus in TZM-bl cells [9] [mg/L]	IC50 of neutralization of the Env-pseudotyped virus in TZM-bl cells [10] [mg/L]	IC50 of neutralization of the Env-pseudotyped virus in TZM-bl cells [11] [mg/L]	IC50 of neutralization of the Env-pseudotyped virus in TZM-bl cells [12] [mg/L]
426c N276D gp140 (293T), uncleaved soluble trimer (domain or fragment)	0.0588	0.000193	9010	–	–	–	–	–	–	–	–	–	–	–	–
426c N276D gp140 (GnT1-), uncleaved soluble trimer (domain or fragment)	0.178	0.000739	11100	–	–	–	–	–	–	–	–	–	–	–	–
TM1 gp140 (293T), uncleaved soluble 426c trimer (domain or fragment)	0.0294	0.000148	5030	–	–	–	–	–	–	–	–	–	–	–	–
TM1 gp140 (GnT1-), uncleaved soluble 426c trimer (domain or fragment)	0.0426	0.000229	5370	–	–	–	–	–	–	–	–	–	–	–	–
germline-reverted 3BNC117 (antibody)	–	–	–	> 25	> 25	> 25	> 25	> 25	> 25	–	–	–	–	–	–
germline-reverted 12A12 (antibody)	–	–	–	> 25	> 25	> 25	0.63	> 25	> 25	–	–	–	–	–	–
germline-reverted VRC01 (antibody)	–	–	–	> 50	> 25	1.37	0.36	> 50	0.99	> 50	> 50	> 50	> 50	> 50	> 50
germline-reverted VRC03 (antibody)	–	–	–	> 25	> 25	> 25	> 25	> 25	> 25	–	–	–	–	–	–
germline-reverted VRC04 (antibody)	–	–	–	> 25	> 25	> 25	> 25	> 25	> 25	–	–	–	–	–	–
germline-reverted VRC07 (antibody)	–	–	–	> 25	> 25	1.6	1.7	> 25	0.76	–	–	–	–	–	–
germline-reverted VRC18b (antibody)	–	–	–	> 25	> 25	23	17.3	> 25	> 25	–	–	–	–	–	–
germline-reverted VRC20 (antibody)	–	–	–	> 25	2.39	4.6	0.03	> 25	10.3	–	–	–	–	–	–
germline-reverted VRC23 (antibody)	–	–	–	> 25	> 25	> 25	> 25	> 25	> 25	–	–	–	–	–	–
